In patent publication EP3636320A1 (Numab Therapeutics AG, dated 2020):

Target: human CD137 expressed on Jurkat cells (human, UniProt Q07011 24-255)
Assay: cell-based or functional assay

Row | IC50 (ng/ml), activation of NF-kB reporter gene, HCC827 +IFNg, 6 h, with HSA [ng/mL] | IC50 (ng/ml), activation of NF-kB reporter gene, HCC827 +IFNg, 24 h, with HSA [ng/mL] | Binder
1 | 6.44 | 4.67 | PRO1480 (other) DIQMTQSPASLSASVGDRVTITCQASQSIGTYLAWYQQKPGKPPKLLIYRAFILASGVPSRFSGSGSGTDFTLTISSLQPEDFATYYCQSNFYSDSTTIGPNAFGTGTKVTVLGGGGGSEVQLVESGGGLVQPGGSLRLSCAASGFSFSANYYPCWVRQAPGKGLEWIGCIYGGSSDITYDANWTKGRFTISRDNSKNTVYLQMNSLRAEDTAVYYCARSAWYSGWGGDLWGQGTLVTVSSGGGGSGGGGSGGGGSGGGGSIQMTQSPSSLSASVGDRVTITCQASQSISNRLAWYQQKPGKAPKLLIYSASTLASGVPSRFSGSGSGTDFTLTISSLQPEDFATYYCQSTYYGNDGNAFGTGTKVTVLGGGGGSEVQLVESGGGLVQPGGSLRLSCAASGFSFNSDYWIYWVRQAPGKGLEWIASIYGGSSGNTQYASWAQGRFTISRDNSKNTVYLQMNSLRAEDTAVYFCARGYVDYGGATDLWGQGTLVTVSSGGGGSGGGGSIQMTQSPSSLSASVGDRVTITCQSSESVYSNNQLSWYQQKPGQPPKLLIYDASDLASGVPSRFSGSGSGTDFTLTISSLQPEDFATYYCAGGFSSSSDTAFGGGTKLTVLGGGGGSGGGGSGGGGSGGGGSEVQLVESGGGLVQPGGSLRLSCAASGFSLSSNAMGWVRQAPGKGLEYIGIISVGGFTYYASWAKGRFTISRDNSKNTVYLQMNSLRAEDTATYFCARDRHGGDSSGAFYLWGQGTLVTVSS
2 | 7.22 | 5.51 | PRO1481 (other) DIQMTQSPASLSASVGDRVTITCQASQSIGTYLAWYQQKPGKPPKLLIYRAFILASGVPSRFSGSGSGTDFTLTISSLQPEDFATYYCQSNFYSDSTTIGPNAFGTGTKVTVLGGGGGSESQLVESGGGLVQPGGSLRLSCAASGFSFSANYYPCWVRQAPGKGLEWIGCIYGGSSDITYDANWTKGRFTISRDNSKNTVYLQMNSLRAEDTAVYFCARSAWYSGWGGDLWGPGTLVTVSSGGGGSGGGGSGGGGSGGGGSFQLTQSPSSLSASVGDRVTITCQASQSISNRLAWYQQKPGKPPKLLIYSASTLASGVPSRFSGSGSGTDFTLTISSLQPEDFATYYCQSTYYGNDGNAFGTGTKVTVLGGGGGSEVQLVESGGGLVQPGGSLRLSCAASGFSFNSDYWIYWVRQAPGKGLEWIASIYGGSSGNTQYASWAQGRFTISRDNSKNTVYLQMNSLRAEDTAVYFCARGYVDYGGATDLWGQGTLVTVSSGGGGSGGGGSIQMTQSPSSLSASVGDRVTITCQSSESVYSNNQLSWYQQKPGQPPKLLIYDASDLASGVPSRFSGSGSGTDFTLTISSLQPEDFATYYCAGGFSSSSDTAFGGGTKLTVLGGGGGSGGGGSGGGGSGGGGSEVQLVESGGGLVQPGGSLRLSCAASGFSLSSNAMGWVRQAPGKGLEYIGIISVGGFTYYASWAKGRFTISRDNSKNTVYLQMNSLRAEDTATYFCARDRHGGDSSGAFYLWGQGTLVTVSS
